Measurements as given in paper PMC7192615, “Structure specific recognition of telomeric repeats containing RNA by the RGG-box of hnRNPA1”.

Key:
RGG-box (isolated) [1] = biological target: T1, RGG-box (isolated) (UniProt P09651-2 197-249); assay: ITC; 100 mM KCl; ITC/CD: 20 mM Tris pH 8.0, 100 mM KCl, 25 C; NMR: 10 mM potassium phosphate pH 6.5, 100 mM KCl, 298 K (10% D2O for HSQC); conditions: protein: recombinant; tags: GST removed by TEV; intramolecular parallel G4
UP1 = UP1 (UniProt P09651-2 1-196); assay: as above; conditions: protein: recombinant, tags: C-terminal 6xHis
UP1, sequence (P09651 1-196): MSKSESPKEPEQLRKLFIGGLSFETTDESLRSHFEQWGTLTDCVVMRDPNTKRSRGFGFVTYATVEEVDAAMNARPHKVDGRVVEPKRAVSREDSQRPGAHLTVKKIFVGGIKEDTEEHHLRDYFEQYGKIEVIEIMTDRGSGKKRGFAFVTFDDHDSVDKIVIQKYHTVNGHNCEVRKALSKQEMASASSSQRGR

UP1+RGG [2] = biological target: T2, UP1+RGG (UniProt P09651-2 1-249); assay: as above; conditions: protein: recombinant, tags: C-terminal 6xHis
T2 sequence (P09651 1-249): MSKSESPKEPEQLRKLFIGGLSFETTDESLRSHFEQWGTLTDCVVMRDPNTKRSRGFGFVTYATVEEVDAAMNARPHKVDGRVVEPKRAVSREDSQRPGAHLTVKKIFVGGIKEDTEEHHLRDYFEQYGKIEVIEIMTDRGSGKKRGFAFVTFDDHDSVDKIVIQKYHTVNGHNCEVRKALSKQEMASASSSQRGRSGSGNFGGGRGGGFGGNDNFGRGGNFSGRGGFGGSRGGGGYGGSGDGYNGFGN

UP1+RGG [3] = biological target: T2, UP1+RGG; assay: ITC; 100 mM KCl, 20% PEG 200; ITC/CD: 20 mM Tris pH 8.0, 100 mM KCl, 25 C; NMR: 10 mM potassium phosphate pH 6.5, 100 mM KCl, 298 K (10% D2O for HSQC); conditions: protein: recombinant; tags: C-terminal 6xHis; intramolecular parallel G4
RGG-box (isolated) [4] = biological target: T1, RGG-box (isolated); assay: NMR HSQC CSP titration (global fit); 100 mM KCl; ITC/CD: 20 mM Tris pH 8.0, 100 mM KCl, 25 C; NMR: 10 mM potassium phosphate pH 6.5, 100 mM KCl, 298 K (10% D2O for HSQC); conditions: protein: recombinant; tags: GST removed by TEV; intramolecular parallel G4
[5] = parallel G4 tetramer of 4 strands, no loops
[6] = parallel G4 dimer of 2 strands, two loops

T1 sequence (P09651 197-249): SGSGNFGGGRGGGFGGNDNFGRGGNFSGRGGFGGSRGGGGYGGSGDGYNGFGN

UUAGGGUUAGGGUUAGGGUUAGGG (structured_RNA) [TERRA-24]
Kd (RGG-box (isolated) [1]): 9000 ± 4300 nM | Kd (UP1; intramolecular parallel G4): 1710 ± 170 nM | Kd (UP1+RGG [2]; intramolecular parallel G4): 920 ± 170 nM | Kd (UP1+RGG [3]): 3000 ± 550 nM | Kd (RGG-box (isolated) [4]): 11000 ± 1500 nM

UUAGGG (structured_RNA) [TERRA-6]
Kd (UP1; [5]): 2020 ± 170 nM | Kd (UP1+RGG [2]; [5]): 2380 ± 230 nM

GAGUAACCCGUAUCGUGA (ssRNA) [ssRNA-18]
Kd (UP1; single strand, 18 nt): 2370 ± 490 nM | Kd (UP1+RGG [2]; single strand, 18 nt): 2280 ± 260 nM

UUAGGGUUAGGG (structured_RNA) [TERRA-12]
Kd (UP1; [6]): 2040 ± 470 nM | Kd (UP1+RGG [2]; [6]): 1070 ± 140 nM
